Assay in all cases: cell-based or functional assay
Experiment [1] addresses T1, IFN-γ receptor (IFNGR1, IFNGR2) (UniProt P15260).
T1 sequence (looked up) 1: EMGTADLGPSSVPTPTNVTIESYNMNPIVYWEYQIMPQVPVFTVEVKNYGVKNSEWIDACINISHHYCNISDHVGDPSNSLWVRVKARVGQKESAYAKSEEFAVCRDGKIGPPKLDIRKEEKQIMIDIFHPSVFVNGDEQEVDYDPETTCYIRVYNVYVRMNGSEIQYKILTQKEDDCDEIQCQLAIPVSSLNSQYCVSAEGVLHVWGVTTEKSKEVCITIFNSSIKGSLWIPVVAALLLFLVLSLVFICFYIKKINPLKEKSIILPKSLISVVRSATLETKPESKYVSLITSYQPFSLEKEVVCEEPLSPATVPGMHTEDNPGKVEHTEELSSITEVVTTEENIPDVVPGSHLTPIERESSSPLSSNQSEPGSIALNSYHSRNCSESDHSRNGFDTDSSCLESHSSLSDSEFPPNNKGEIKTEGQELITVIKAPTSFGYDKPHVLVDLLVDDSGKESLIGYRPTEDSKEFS
T1 sequence (looked up) 2: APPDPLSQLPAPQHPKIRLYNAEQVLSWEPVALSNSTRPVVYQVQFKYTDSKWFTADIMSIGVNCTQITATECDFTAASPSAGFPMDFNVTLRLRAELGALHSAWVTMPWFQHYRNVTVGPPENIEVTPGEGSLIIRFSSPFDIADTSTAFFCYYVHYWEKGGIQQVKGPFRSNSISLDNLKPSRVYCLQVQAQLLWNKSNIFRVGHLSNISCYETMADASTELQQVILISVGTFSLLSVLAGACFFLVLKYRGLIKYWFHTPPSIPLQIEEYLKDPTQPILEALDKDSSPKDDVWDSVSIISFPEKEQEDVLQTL

Experiment [2] addresses IL-23 receptor complex (IL-12Rβ1, IL-23R) (UniProt P42701).
Experiment [3] deals with human IL-12 receptor complex (IL-12Rβ1, IL-12Rβ2) (human) (UniProt P42701).
Chain of human IL-12 receptor complex (IL-12Rβ1, IL-12Rβ2) (human) (Q99665 24-862, chain 2 of 2, other chains not shown): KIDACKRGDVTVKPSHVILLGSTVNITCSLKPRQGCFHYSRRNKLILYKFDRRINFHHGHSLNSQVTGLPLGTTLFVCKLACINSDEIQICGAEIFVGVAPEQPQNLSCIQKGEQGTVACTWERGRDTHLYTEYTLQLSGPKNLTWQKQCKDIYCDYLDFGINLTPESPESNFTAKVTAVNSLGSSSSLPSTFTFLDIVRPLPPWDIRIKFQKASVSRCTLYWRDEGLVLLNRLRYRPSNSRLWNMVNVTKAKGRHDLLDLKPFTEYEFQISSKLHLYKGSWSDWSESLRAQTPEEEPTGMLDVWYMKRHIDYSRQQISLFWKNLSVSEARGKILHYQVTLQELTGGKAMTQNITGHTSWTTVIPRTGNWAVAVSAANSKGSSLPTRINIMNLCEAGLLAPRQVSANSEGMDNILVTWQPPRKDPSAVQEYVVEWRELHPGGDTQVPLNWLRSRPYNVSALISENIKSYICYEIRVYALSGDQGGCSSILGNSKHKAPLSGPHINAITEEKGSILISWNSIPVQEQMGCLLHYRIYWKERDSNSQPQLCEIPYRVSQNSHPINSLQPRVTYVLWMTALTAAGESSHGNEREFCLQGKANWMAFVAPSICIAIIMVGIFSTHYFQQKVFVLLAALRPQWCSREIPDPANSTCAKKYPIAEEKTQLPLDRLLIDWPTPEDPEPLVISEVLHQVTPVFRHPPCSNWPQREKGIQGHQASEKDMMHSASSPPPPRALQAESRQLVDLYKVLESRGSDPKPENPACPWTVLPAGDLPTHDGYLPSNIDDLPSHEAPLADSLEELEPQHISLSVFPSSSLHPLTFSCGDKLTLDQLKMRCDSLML
The target of experiment [4] is human IL-10 receptor (hIL-10Rα, hIL-10Rβ) (human) (UniProt Q13651).
Chain of human IL-10 receptor (hIL-10Rα, hIL-10Rβ) (human) (Q13651 22-578, chain 1 of 2): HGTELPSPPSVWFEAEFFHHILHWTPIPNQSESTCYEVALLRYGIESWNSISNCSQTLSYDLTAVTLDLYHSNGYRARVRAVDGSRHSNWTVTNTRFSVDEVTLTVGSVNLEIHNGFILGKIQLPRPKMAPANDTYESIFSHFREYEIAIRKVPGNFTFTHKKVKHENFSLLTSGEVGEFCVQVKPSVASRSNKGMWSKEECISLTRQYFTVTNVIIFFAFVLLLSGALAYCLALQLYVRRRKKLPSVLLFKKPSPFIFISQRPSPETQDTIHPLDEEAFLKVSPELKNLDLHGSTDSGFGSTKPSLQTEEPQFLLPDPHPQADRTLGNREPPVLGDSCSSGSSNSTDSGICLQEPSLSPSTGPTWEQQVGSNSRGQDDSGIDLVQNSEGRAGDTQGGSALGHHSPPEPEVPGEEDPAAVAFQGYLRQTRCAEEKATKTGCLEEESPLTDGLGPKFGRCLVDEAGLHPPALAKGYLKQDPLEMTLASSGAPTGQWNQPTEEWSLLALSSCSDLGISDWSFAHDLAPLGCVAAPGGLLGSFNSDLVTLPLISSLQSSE
Chain of human IL-10 receptor (hIL-10Rα, hIL-10Rβ) (human) (Q08334 20-325, chain 2 of 2, further chain): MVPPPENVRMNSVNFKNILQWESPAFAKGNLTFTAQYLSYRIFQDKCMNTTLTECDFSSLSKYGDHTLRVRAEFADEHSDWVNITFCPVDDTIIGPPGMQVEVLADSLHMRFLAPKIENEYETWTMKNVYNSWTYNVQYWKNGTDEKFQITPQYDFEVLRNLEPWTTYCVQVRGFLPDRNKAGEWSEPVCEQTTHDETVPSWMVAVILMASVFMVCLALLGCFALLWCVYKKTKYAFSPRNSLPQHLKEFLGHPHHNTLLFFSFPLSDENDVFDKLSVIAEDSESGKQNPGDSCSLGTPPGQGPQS

Chain of recombinant human IFN-γ (free state) (P01579 24-166 limits assumed): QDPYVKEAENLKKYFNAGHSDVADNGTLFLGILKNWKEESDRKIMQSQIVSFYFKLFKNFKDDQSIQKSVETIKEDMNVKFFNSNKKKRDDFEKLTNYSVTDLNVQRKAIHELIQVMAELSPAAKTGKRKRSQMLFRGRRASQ
Chain of IL-23 receptor complex (IL-12Rβ1, IL-23R) (Q5VWK5 24-629 limits assumed, chain 2 of 2, other chains not shown): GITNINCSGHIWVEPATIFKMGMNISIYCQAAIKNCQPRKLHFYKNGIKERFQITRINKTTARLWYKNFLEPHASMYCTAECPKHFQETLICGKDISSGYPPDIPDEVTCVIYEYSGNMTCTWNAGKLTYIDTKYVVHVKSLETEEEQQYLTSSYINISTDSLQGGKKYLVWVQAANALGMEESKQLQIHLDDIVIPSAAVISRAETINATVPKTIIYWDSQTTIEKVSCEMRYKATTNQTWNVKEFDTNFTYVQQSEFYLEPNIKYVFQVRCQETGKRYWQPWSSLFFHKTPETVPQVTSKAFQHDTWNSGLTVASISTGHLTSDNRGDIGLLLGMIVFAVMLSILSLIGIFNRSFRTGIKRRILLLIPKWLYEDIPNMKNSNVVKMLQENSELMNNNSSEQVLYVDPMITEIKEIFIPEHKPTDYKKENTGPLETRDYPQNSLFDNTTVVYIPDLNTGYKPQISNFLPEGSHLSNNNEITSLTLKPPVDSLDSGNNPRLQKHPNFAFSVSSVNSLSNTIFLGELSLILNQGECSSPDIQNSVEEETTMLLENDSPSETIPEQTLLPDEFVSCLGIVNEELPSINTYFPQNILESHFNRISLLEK
Chain of recombinant human IL-23 (free state) (P29460 23-328 limits assumed): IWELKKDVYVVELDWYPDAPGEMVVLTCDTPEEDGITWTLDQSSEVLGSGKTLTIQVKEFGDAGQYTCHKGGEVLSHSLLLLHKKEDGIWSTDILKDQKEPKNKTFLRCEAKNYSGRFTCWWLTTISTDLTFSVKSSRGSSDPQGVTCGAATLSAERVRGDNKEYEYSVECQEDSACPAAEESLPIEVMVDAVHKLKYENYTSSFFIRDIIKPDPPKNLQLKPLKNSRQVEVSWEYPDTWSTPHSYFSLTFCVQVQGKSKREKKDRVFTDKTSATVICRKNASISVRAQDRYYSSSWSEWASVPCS
Chain of recombinant human IL-23 (free state) (Q9NPF7 20-189 limits assumed): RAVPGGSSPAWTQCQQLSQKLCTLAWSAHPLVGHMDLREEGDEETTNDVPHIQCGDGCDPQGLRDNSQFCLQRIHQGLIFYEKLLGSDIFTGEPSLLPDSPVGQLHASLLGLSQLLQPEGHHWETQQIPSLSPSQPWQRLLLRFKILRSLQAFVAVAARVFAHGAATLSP
Chain of recombinant human IL-12 (free state) (P29460 23-328 limits assumed): as the sequence (P29460 23-328 limits assumed) above
Chain of recombinant human IL-12 (free state) (P29459 23-219 limits assumed): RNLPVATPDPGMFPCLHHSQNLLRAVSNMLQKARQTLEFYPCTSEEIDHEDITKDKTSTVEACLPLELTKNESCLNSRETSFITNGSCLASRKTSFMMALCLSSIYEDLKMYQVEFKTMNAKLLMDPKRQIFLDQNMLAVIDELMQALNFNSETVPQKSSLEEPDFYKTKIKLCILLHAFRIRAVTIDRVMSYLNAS

In experiment [1], “recombinant human IFN-γ (free state) (from UniProt P01579 24-166) (ligand)” returned an IFN-γ biological activity, HEK-IFN-γ cells of 100%; an IFN-γ biological activity, HEK-PD-1-IFN-γ cells of 100%; a PD-L1 expression (anti-PD-L1 APC, FACS), HEK-CD4-IFN-γ cells of 67 MFI; a PD-L1 expression (anti-PD-L1 APC, FACS), HEK-IFN-γ cells of 75 MFI.
As to “recombinant human IL-23 (free state) (from UniProt P29460 23-328; Q9NPF7 20-189) (ligand)”, in experiment [2], the IL-23 biological activity (IFN-γ release), CD4+ T cells was determined as 100%; the IL-23 biological activity (IFN-γ release), CD8+ T cells is 100%; the IL-23 biological activity, HEK-IL-23 cells is 100%; the IL-23 biological activity, HEK-PD-1-IL-23 cells turned out to be 100%.
With “recombinant human IL-12 (free state) (from UniProt P29460 23-328; P29459 23-219) (ligand)”, in experiment [3], the IL-12 biological activity (IFN-γ release), CD4+ T cells turned out to be 100%; the IL-12 biological activity (IFN-γ release), CD8+ T cells is 100%; the IL-12 biological activity, HEK-IL-12 was found to be 100%; the IL-12 biological activity, HEK-IL-12-PD-1 was 100%. In experiment [3], this substance gave an IL-12 biological activity, HEK-IL-12-PD-1 (high) of 100%; an IL-12 biological activity, HEK-IL-12-PD-1 (low) of 100%; an IL-12 biological activity, HEK-IL-12 cells of 100%; an IL-12 biological activity, HEK-PD-1-IL-12 of 100%. In addition, in experiment [3], the IL-12 biological activity, HEK-PD-1-IL-12 cells came out at 100% and the PBMC (IFN-γ ng/ml) is 2300 ng/mL.
With “recombinant human IL-10 (free state) (from UniProt P22301 19-178) (ligand)”, in experiment [4], the IL-10 biological activity, HEK-IL-10 cells came to 100% and the IL-10 biological activity, HEK-PD-1-IL-10 cells was 100%.
